Patent publication US20220249633A1

These binders were tested against HLA-A*24 (human) (assay: UV-exchange ELISA, exchange yield grade).

Binder	peptide exchange yield [%]
VFTTSSNIF [… (SEQ ID NO: 186)]	> 75
VYFKAGLDVF [… (SEQ ID NO: 177)]	50 to 75
FYINGQYQF [… (SEQ ID NO: 176)]	50 to 75
VYPPYLNYL [… (SEQ ID NO: 181)]	50 to 75
TYIPVGLGRLL [… (SEQ ID NO: 179)]	50 to 75
KYPDIVQQF [… (SEQ ID NO: 161)]	50 to 75
VYEKNGYIYF [… (SEQ ID NO: 174)]	50 to 75
NYSSAVQKF [… (SEQ ID NO: 178)]	50 to 75
LYSPVPFTL [… (SEQ ID NO: 175)]	50 to 75
RYGFYYVEF [… (SEQ ID NO: 167)]	50 to 75
VFIFKGNEF [… (SEQ ID NO: 172)]	> 75
AYAQLGYLLF [… (SEQ ID NO: 182)]	> 75
NYITGKGDVF [… (SEQ ID NO: 169)]	50 to 75
QYLVHVNDL [… (SEQ ID NO: 185)]	> 75
YYMELTKLLL [… (SEQ ID NO: 156)]	> 75
PYLQDVPRI [… (SEQ ID NO: 183)]	50 to 75
FYTLPFHLI [… (SEQ ID NO: 166)]	> 75
KYLQVVGMF [… (SEQ ID NO: 180)]	50 to 75
DYIPASGFALF [… (SEQ ID NO: 157)]	50 to 75
NYEDHFPLL [… (SEQ ID NO: 171)]	50 to 75
RYLEAALRL [… (SEQ ID NO: 168)]	50 to 75
RYLTISNLQF [… (SEQ ID NO: 163)]	> 75
QYLEKYYNL [… (SEQ ID NO: 173)]	> 75
QYPFHVPLL [… (SEQ ID NO: 170)]	> 75
RYGDGGSSF [… (SEQ ID NO: 160)]	50 to 75
IYEETRGVL [… (SEQ ID NO: 159)]	50 to 75
IYSVGAFENF [… (SEQ ID NO: 184)]	> 75
KYTSYILAF [… (SEQ ID NO: 162)]	20 to 49
HYVPATKVF [… (SEQ ID NO: 164)]	50 to 75
EYFTPLLSGQF [… (SEQ ID NO: 165)]	50 to 75
